To fix the notation:
B1: PA2854 (natural protein)
chain: LELQLPPPGEDVVGQVQVIKAKYEDTFADLGEQYNLGYSEMVAANPGVDPWLPGVGTEVIIPTRFVLPPGPREGVVINLAEYRLYYYPKGQNVVHTYPLGIGREGWGSPIANTRITAKTKDPAWYPPASIRAEHAADGDPLPTVVPPGPDNPLGPYKLTLGVPGYLIHGSNKKFGIGTRTSHGCFRMYNADVTHLFSMISVGTSVRIINEPYKFGVSNGKVYLEAHTPLNDHGDPSVVDKHTAVINTLLKRDDLAKRIQLNWDVVREVVASEDGVPVEIAQESAPAMTATVDSDPTQLTP
notes: source: E. coli, purified (Ni-NTA or Strep-Tactin)
B2: RlpA-Δ81 (domain or fragment)
chain: YTVLGKTYYPMNDARAYRMVGTASWYGTKFHGQATANGETYDLYGMTAAHKTLPLPSYVRVTNLDNGKSVIVRVNDRGPFYSDRVIDLSFAAAKKLGYAETGTARVKVEGIDPVQWWAQRGRPAPMVLAQPKQAVAQAAPAAAQTQAVAMAQPIETYTPPPAQHAAAVLPVQIDSKKNASLPADGLYLQVGAFANPDAAELLKAKLSGVTAAPVFISSVVRNQQILHRVRLGPIGSADEVSRTQDSIRVANLGQPTLVRPD
notes: source: E. coli BL21-star (DE3), purified (Ni-NTA)
B4: RlpA-Δ32·MltF2 complex (MST) (complex)
chain 1: PQQPARQAGISGPGDYSRPHRDGAPWWDVDVSRIPDAVPMPHNGSVKANPYTVLGKTYYPMNDARAYRMVGTASWYGTKFHGQATANGETYDLYGMTAAHKTLPLPSYVRVTNLDNGKSVIVRVNDRGPFYSDRVIDLSFAAAKKLGYAETGTARVKVEGIDPVQWWAQRGRPAPMVLAQPKQAVAQAAPAAAQTQAVAMAQPIETYTPPPAQHAAAVLPVQIDSKKNASLPADGLYLQVGAFANPDAAELLKAKLSGVTAAPVFISSVVRNQQILHRVRLGPIGSADEVSRTQDSIRVANLGQPTLVRPD
chain 2: RITGQPDNWHREQPETRDLASIRRAGVLKVLVNQSRNSSGEVKGEPIGVEYRRLRAFEQYLNSRSPSARNLTLKLIPKPKDQLLAALQRGEGDLVAPGELLPAHDGLQVSPSAPVRADVPLVLVARKGNRRYTRLEQLSGRTIPLPAGSAAEGAIELVNQRLAQRRMAPIRIEKLDASLAVEDVMEMVQAGILGFTVVEQPIAERWAKVLPKLRVDRHLVLDNRADMAWYVRRDASTLRATIDRFLADYRAPADQDVAFQRVYRRAYKVRNPLGAADRKRLEAVRPLLQRYARQSSMDWLALAAVAYKESHLNPKARGSGGASGLMQITPAAARSVGVGNVHDKDSNVLAASRYLTKIRKQFFSSKHLDERERLAFTLAAYNMGPERVQNLRTQARRRGLDPNRWFFQVERVAAEEIGMGVVSYVSSVNKYYLAYERERVRLEPGVRAKTATAQK
modifications: amine reactive RED-NHS dye

Conditions in all cases: both partners purified
Assay [1] concerns the target T1, RlpA-Δ32, fluorescently labeled (P. aeruginosa PAO1, UniProt Q9X6V6 32-342, amine reactive RED-NHS dye).
T1 construct: source: E. coli BL21-star (DE3), purified (Ni-NTA), labelled with RED-NHS dye
T1 sequence: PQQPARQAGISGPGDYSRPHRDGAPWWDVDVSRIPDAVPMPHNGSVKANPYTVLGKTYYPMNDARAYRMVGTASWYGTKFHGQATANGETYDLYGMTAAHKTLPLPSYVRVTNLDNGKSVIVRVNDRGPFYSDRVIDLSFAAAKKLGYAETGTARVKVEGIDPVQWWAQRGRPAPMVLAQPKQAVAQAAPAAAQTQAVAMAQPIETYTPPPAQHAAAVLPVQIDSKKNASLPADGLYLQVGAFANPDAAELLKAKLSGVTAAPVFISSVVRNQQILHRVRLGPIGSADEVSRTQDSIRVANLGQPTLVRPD
Briefly: MST.

Assay [2] has as its target B4. Briefly: MST.
Assay [3] addresses T2, RlpA-Δ32 (P. aeruginosa PAO1, UniProt Q9X6V6 32-342).
T2 construct: source: E. coli BL21-star (DE3), purified (Ni-NTA)
T2 sequence: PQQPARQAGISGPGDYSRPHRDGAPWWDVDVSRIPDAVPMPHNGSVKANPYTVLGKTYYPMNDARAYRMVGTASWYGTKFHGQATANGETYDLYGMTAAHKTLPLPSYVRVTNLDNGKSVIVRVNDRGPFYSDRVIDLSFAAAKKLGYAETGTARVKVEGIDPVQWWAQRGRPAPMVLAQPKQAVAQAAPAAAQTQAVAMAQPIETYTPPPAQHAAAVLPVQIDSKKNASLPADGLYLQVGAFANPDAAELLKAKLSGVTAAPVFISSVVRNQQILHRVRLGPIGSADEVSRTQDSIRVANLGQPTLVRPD
Briefly: SPR. In general terms: SPR reads the build-up and loss of mass on a sensor chip optically.

Assay [4] deals with B1. Briefly: SPR.
In assay [5] the target is T3, PBP1a (P. aeruginosa PAO1, UniProt Q07806 27-822). Briefly: SPR.
The target of assay [6] is T4, MltD (P. aeruginosa PAO1, UniProt Q9I2T2 1-534).
T4 sequence (looked up): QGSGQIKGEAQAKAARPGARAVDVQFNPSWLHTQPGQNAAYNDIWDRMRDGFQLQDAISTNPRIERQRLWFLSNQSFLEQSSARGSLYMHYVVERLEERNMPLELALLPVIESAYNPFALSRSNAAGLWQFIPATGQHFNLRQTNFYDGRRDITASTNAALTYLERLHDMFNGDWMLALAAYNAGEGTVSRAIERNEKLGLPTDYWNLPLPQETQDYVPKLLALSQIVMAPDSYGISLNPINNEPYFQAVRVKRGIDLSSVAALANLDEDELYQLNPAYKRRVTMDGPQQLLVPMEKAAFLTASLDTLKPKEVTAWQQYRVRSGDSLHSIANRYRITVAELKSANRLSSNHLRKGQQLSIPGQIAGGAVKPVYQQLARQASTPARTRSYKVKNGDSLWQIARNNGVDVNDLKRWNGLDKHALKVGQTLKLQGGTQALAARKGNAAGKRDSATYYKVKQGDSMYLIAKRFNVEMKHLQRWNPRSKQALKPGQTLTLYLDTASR
Briefly: SPR.

Assay [7] concerns the target T5, TypA (P. aeruginosa PAO1, UniProt Q9HU67 1-605).
T5 sequence (looked up): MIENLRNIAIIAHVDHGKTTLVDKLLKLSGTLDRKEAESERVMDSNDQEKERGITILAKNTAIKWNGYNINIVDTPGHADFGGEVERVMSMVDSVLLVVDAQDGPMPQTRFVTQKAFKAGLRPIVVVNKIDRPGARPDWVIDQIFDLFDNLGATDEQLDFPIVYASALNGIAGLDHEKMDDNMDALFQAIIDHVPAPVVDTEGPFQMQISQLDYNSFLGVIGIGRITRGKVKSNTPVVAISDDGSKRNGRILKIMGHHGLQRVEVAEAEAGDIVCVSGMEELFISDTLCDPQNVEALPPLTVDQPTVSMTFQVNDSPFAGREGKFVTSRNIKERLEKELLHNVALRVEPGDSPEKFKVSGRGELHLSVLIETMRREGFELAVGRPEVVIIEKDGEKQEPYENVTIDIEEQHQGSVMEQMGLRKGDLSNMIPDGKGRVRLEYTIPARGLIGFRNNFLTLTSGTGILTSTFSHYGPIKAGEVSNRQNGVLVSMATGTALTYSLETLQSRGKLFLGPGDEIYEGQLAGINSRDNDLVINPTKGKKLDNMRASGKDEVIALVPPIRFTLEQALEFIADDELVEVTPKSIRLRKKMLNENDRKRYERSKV
Briefly: SPR.

Assay [8] addresses T6, MltF2 (P. aeruginosa PAO1, UniProt Q9HZY1 1-476).
T6 sequence (looked up): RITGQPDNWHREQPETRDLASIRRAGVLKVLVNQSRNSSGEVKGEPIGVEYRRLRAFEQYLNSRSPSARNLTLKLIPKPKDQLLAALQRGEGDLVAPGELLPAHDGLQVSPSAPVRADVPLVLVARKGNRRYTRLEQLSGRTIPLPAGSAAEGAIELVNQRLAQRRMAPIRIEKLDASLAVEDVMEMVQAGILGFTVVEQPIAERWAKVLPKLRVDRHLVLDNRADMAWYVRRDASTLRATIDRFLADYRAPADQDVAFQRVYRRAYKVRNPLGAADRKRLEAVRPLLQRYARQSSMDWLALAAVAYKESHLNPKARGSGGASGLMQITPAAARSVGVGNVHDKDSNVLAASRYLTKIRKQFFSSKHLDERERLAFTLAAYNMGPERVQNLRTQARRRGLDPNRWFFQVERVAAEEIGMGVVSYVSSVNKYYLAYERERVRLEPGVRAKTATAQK
Briefly: SPR.

Assay [9] concerns the target B2. Briefly: SPR.
Assay [10] concerns the target T3, PBP1a. Briefly: MST.

T3 sequence (Q07806 27-822): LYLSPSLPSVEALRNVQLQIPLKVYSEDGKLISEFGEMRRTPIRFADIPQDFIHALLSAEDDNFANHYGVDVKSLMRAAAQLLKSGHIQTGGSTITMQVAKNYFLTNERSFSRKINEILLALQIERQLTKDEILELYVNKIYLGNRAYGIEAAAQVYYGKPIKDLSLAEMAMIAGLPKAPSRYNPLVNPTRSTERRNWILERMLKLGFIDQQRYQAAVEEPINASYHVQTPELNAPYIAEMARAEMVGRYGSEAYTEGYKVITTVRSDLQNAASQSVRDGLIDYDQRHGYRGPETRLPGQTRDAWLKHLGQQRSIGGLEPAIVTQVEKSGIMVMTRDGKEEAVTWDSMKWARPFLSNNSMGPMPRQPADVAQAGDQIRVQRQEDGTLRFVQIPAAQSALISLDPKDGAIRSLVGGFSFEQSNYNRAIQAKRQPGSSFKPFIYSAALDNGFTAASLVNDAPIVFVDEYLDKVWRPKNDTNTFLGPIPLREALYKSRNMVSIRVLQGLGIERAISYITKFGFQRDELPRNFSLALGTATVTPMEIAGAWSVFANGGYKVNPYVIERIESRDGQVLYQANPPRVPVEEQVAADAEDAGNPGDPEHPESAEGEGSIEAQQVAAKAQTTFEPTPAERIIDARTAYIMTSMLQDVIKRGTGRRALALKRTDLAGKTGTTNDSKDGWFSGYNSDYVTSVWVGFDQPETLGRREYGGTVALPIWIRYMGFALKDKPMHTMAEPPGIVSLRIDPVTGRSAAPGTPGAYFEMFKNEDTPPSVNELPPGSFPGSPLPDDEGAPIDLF

On to B1, for which binding in assay [1] was characterised by a dissociation constant (Kd) of 58 nM. Also, the Kd in assay [2] is 55 nM. Further, in assay [3], binding was put at a Kd of 65 nM, the koff stood at 0.00032 s⁻¹ and the kon was 4900 M⁻¹ s⁻¹.

Take B2: the Kd came out at 2270 nM in assay [4]; 94 nM in [5]; 56 nM in [6]; 74 nM in assay [7]; 3 nM in [8]. The koff in assay [4] worked out at 0.00075 s⁻¹; in [5], 0.00177 s⁻¹; in assay [6], 0.0039 s⁻¹; in [7], 0.00047 s⁻¹; in [8], 4e-05 s⁻¹. In addition, the kon in assay [4] was 330 M⁻¹ s⁻¹; in [5] it was 18800 M⁻¹ s⁻¹; in [6] it was 69000 M⁻¹ s⁻¹; in assay [7] it was 6400 M⁻¹ s⁻¹; in [8], 14900 M⁻¹ s⁻¹.

B3: PilO (natural protein)
chain: YNFHLSDMQAQLEQQAAEEETLKQQFSTKAFQAANLEAYKAQMKEMEESFGALLRQLPSDTEVPGLLEDITRTGLGSGLEFEEIKLLPEVAQQFYIELPIQISVVGGYHDLATFVSGVSSLPRIVTLHDFEIKPVAPGSTSKLRMSILAKTYRYNDKGLKK
notes: as for B1
In the case of B3, the Kd came out at 350 nM in assay [1], 208 nM in assay [2], 3130 nM in assay [3] and 1010 nM in assay [9]. Besides, the koff in assay [3] is 0.00275 s⁻¹; in assay [9], 0.00076 s⁻¹. The kon was 880 M⁻¹ s⁻¹ in [3] and 750 M⁻¹ s⁻¹ in assay [9].

B4 gave a Kd in assay [10] of 45 nM.

B5: PA4063 (natural protein)
chain: HDDHDHDHAHGSLGKHEHGVAQLNVALDGKTLELELDSPAMNLVGFEHAASTDADKAAVAKARAQLEKPLELFALPVTAGCSVASQELRSPLFGDKAPAHAHKEKAGHEHEHEHEHEHGHADIHAHYQLSCEKPELLKLLTLAEFFKRFPATQKIQVQLIGPDGQKGADLAPASAELKL
notes: as for B1
With B5, the dissociation constant (Kd) in assay [1] came out at 201 nM; in [2] it was 105 nM; in assay [3], 810 nM; in assay [9], 1080 nM. Also, the koff in assay [3] came to 0.00145 s⁻¹; in assay [9], 0.00194 s⁻¹. For the same molecule, the kon in assay [3] and in assay [9] was 1800 M⁻¹ s⁻¹ throughout.

What is called Kd is a measure of binding affinity in units of concentration. The term koff denotes the rate constant with which the complex falls apart. What is called kon is the rate constant with which the complex forms. High values mean faster complex formation, low ones slower complex formation.

(Values after paper PMC9712689 (Communications Biology, 2022).)
